Data published in the DeepSol protein solubility set.

Assay: soluble on expression in E. coli; label from the status in PepcDB or PDB records
In the case of “MGSDKIHHHHHHMGFRNVIITQHSKLSYSNNAMIVQNKDGINQIPLVDMDILLISTTQAVITSALVSKLAESGIKVIFTDNKNEPVTETVNYYPNNRSLDTYLQQYEWNDHVKEILWTKIVRSKIINQIKVLKNYQIDCQDLKIELDKLEINDMTNREAVVARKYFEKLFGNKYSRKDFTPMNAALNYGYSILLSAVNKEIVSAGYVTYLGIHHQSQENMFNFGSDLMESFRPVVDYWLADKNFLEFTPDIKYGLVDLLNLEIKYNKKQMLLKNAITKYVRDVIEYLNQETVEFDMEVEFTNEVPNNAINDNI”, the “soluble on expression in E. coli” value was “not soluble”.
For “MGSDKIHHHHHHMGGIWMSSAKTLEEVISKISGVISAKVIEEDGQPREIHVIADPSRNPKQIVRDIETVALASLGMKIDRRIISVAQLSQGRFPSSQTYEITSIEVKNLDRKKQVKVTIHNPLEDEDMVGESAGPGTSTNLPRLVGEAVIEAFNPDCPVSVDDVQKVFLAGREFVLVHLTIQDEDRERTEVGVAPLEGDFLKSVATATLKVVKDLT”, the “soluble on expression in E. coli” value was “not soluble”.
In the case of “MGSDKIHHHHHHMGGNSLSKELYDWLGYSSETATASAFVQQRDKIRPEALKLLFHEFTRLTVSENSLQDYRLLAVDGSDLRLPSNSKDGFSSIRNSEDSKNYNLVHLDAMYDLMGKVYVDASVQSKKGMNEHKALVSMVDQSEINGNVIAIMDRGYESFNNIAHFQEKSWYYIIRAKESYGIISRLSLPDYPEYDEEIMLTLTRRQTKETLPLLKAYPHRYRWIQPHTTFDFIKPKDSKFYDLHFRAVRFAIADGVYETVYTNLNAEDFPPEKLKQLYNLRWGIETSFKELKYAVGLASLHSKKKDFILQEIFARLILYNYSSIIMHHISISEDLRVNFPVALNICRQFLRELIPAVQVLKLIGKHLSPIRPGRQFPRHQNPISAVGFQYRII”, the “soluble on expression in E. coli” value was “not soluble”.
In the case of “MGSDKIHHHHHHMGIEAAVGAWNNTPRGDFAYKGTNLDIKDELKYDDETRLMGRVKIETPLFFPNLYLMATPMEFDGQGSKSGTFQFGDVTFDGTVPFTSELKLDHYDLGLYWGIPLLKTATAGVVNVDLGIDARLIDLKAEVVQGGVTESKSLVVGVPMIYAGVQVRPLSWFAAEGEARGMAYGDNRYYDLIARGKLILFDHLFAAAGYRYEKIEIDESDIKADVDFGGPFAEVGFQF”, the “soluble on expression in E. coli” value was “not soluble”.
For “MGSDKIHHHHHHMGKLSLAAKITHVPSMYLSELPGRHHGCRAEAIRGHQAIGERCRALGVDTIVVADTHWLVNAGYHVNCNGHFAGVYTSNELPHFIRDMRYEYPGNPALGHLIAASANERGIGTRAHEIDSLELEYGTLVPMRYMNADQRFKVVSIAGWCMWHALDESRRFGEALRHAIDASDANVAFLASGSLSHRFNDNGSPEEAIHMISREFYRQVDLRVVELWKQGDFATFCKMLPEYNAHCHGEGGMHDTAMLLGLLGWDRYDKPVEIVTDYFASSGTGQINAIFPLP”, the “soluble on expression in E. coli” value was “not soluble”.
In the case of “MGSDKIHHHHHHMGKSIRKIVNWKQYNQALVNRGSLTFWVDEAAVNTWYCHEHHGGRGRGFSYSDVAIETALMVKGIFNLSLRALEGFLNSLFTLMSVPLKSPDYTSISKRAKTVNIKYRNPSRGPIAHVVVDATGLKVFGEGEWKTRKHGSEKRRTWRKLHLAIDASTHEVVAAEVSLVSVGDNEVLPTLLNPLRRKITQVSADGAYDTKGCYQLLRRKGCKATIPPRSNAGLWEKRHPRNEAVEALKAGQLKHWKIDNGYHQRSLAETAMGRYKQLNSPMLSLRDYNGQVAEALAGVKAMNKVIRLGMPVRQQVA”, the “soluble on expression in E. coli” value was “not soluble”.
In the case of “MGSDKIHHHHHHMGKTLAEKIFSEHVGRDVKAGEIVLARVDIAMAQDGTGPLMINEFRELGFKEVKVPKAFLFIDHASPSPRKELSNSQKMMREFGKEMGVKVFDAGDGISHQILAEKYVKPGDLVAGADSHTCTAGGLGAFGTGMGSTDVAIIFGLGQNWFKVPETIKVVVNGKLQDGVYAKDIILEIARILGSDGATYKALEFHGSCIENMNVEDRLTISNMAVEVGAKAGLMPSDEKTREFLKKMGREEDFRELKADPDAVYETEIEIDATTLEPLVSLPHYVDNVRKVSEVEKEKIKIDQVFIGTCTNGRLQDLEIALKILEKHGKHPDVRLIVGPASRKVYMDALEKGIIKKFVELGAAVIPPGCGPCVGIHMGVLGDGERVLSTQNRNFKGRMGNPNAEIYLASPATAAATAVTGYITDPRRFI”, the “soluble on expression in E. coli” value was “not soluble”.
For “MGSDKIHHHHHHMGTRKGDAMEKFDTVVIGAGQAGIATSEHLRALGIDHVVLERGRIAERWRSERWDSLVANGPAWHDRFPGMAFSCDGDVFADKECVARYFEDYAKMIDAPVRTGVTVERARPHADRAGFLVETSQGTFDARNLICATGPFQKPAIPPIIPETSDLTQMHSTAYRNPDALPDGAVLVIGGGSSGSQIAAELHDAGRKVFFSIGPHDRPPRRYRGRDNVWWLGVLGIWNMDTPAPGTEHVTIAVSGAHGGKTVDFRLLAERGITLLGMSSGYEDGVLHIANDLKTNLDAGDANMLSLLEAADAYIKRTGIDLPPEPEAWVIPDDPDCVSNPVRALDLSENNIGTVIWATGFQFDYDWLEADTLDDRGSPIHQRGISAVPGLYFVGLPWQSRRGSSFIWGVWHDAKFIADQIAIQENYLAYRPTASS”, the “soluble on expression in E. coli” value was “not soluble”.
For “MGSDKIHHHHHHMGVKSLVPQELIEKIKLISPGTELRKALDDIINANFGALIFLVDDPKKYEDVIQGGFWLDTDFSAEKLYELSKMDGAIVLSEDITKIYYANVHLVPDPTIPTGETGTRHRTAERLAKQTGKVVIAVSRRRNIISLYYKNYKYVVNQVDFLISKVTQAISTLEKYKDNFNKLLSELEVLELENRVTLADVVRTLAKGFELLRIVEEIRPYIVELGEEGRLARMQLRELTEDVDDLLVLLIMDYSSEEVEEETAQNILQDFITRREPSPISISRVLGYDVQQAAQLDDVLVSARGYRLLKTVARIPLSIGYNVVRMFKTLDQISKASVEDLKKVEGIGEKRARAISESISSLKHRKTSE”, the “soluble on expression in E. coli” value was “not soluble”.
In the case of “MGSDKIHHHHHHMGVYHRIRVSRQTTTLPNIILTKKMIAAKDKAPQLTPQEYFIWEEQQLEKHEYINGEVYAMTGGSVNHGRIAIRFTAMFDSHLQNTGCITGNSDIKVNIFGSNNYTYPDASVTCDVRDQTTTQYITYPCLIVEVLSKTTEAYDRGGKFRMYRQNPALIDYLLVSSTSVEIDLYHKNDAGDWLIINYKPGDTIELKSINLNFPIEKVYRGLTLEPENGG”, the “soluble on expression in E. coli” value was “not soluble”.
With “MGSDKIHHHHHHMHLIDFMNEDIKKKLVKKTYKKKETILFAEQENEYVILMIDGIAEAFILNVKGNISTIHLYRSGSFFGEMEQFNDGKKPVEIVAFTDCNVYKLHRDDFLNWLRGDFEATKFLIREISSKLVVNAELIEELSSLSVKERLLRCISLHYYRSELNLLTKKQLASEVNAPIRSINRAINECVQEHLIAYENKRFSVINQREVLKNLPTT” the “soluble on expression in E. coli” value was “not soluble”.
With “MGSDKIHHHHHHMHLSRDVVLLITHSGDFFTIDRVAEALAKKGVQPFRLDTDKFPLQVQLTAHFDKSQSHHTIEYDNHSISTEQVQAVWMRRIWEPNLSQELAPKFQEACIRESKATLDAFWDSLKGARWVDDLERINYANNKLRQLRIASEVGFVIPQTLVTNKAQAAREFFGQVNGKMVSKLLTTLSRSMEANSSFFLYTSIVKEKDLEDAESLRYCPMVFQEQIPKQMELRVVYVNGHVFVGALNADVYAATKADWRKPGVEVGAWQHHQLPDELVRRLQAFMGKFGLLFGSLDFILTPSGEYVFLEVNPIGEWGMLEKDLDLPIANAIADILLQN” the “soluble on expression in E. coli” value was “not soluble”.
For “MGSDKIHHHHHHMHNVDQQELSKFEQMAHSWWDPNGSFKPIHLLNPLRFNYIQTKANGLFGKKVLDVGCGGGILSEAMAQAGAIVTGIDMTTEPLEIAKQHAIENGLTIHYQQTTVEDLRLNHTACNAEKFDVVTCMEMLEHVPDPLSVIQSCKALLKPDGVLFLSTINRTLKAYMLVVIGAEYLLKMLPKGTHEFEKFIKPAELLTWCDQASLECKEMKGYHFNPLTEKFWLNNDVSCNYIAMLKAK”, the “soluble on expression in E. coli” value was “not soluble”.
For “MGSDKIHHHHHHMHSAALLQKVDELPRLPKAIAELLDVVNNEDSTVKAVSEKLSHDPVLSARVLRLANSARFGCSREVGTIDDAVVRLGMQTLRTLVIASAVVGAVPKVEGFDLADFWGNTFEVAIICQELAKRLGTLPEEAFTCGILHSIGELLIVNGDPAVAATISAAVADGADRNLMEKELLGYDNAEIGALLAQSWKFTPHLVKGIQFQNHPKSAEPYSKLAGMLAMAKQIAADWDKIPDDERTSWLAQINILAGIKVDLGGLAEKLAKMHGQGMEMGKQLA”, the “soluble on expression in E. coli” value was “not soluble”.
With “MGSDKIHHHHHHMHSPRELALLYRQGKNITQLMRDERGLIHNSNEIIEISYDLQAGSYIESMGEAWMAEHNAEYCQQLAKVILSLCNPDSILEAGIGEATTLADLLPHLSKKISSYGFDISWSRVAYGKQWLQQQGISNTVLCTGNLCHIPFADNAVELVYTSHSLEPNGGNEAAILKELYRVTSKFLVLLEPGYELANKDAKHRMEQHGYCRNIKSIAQSLGYRILLHEFFPSSVNPLNPTVITIIEKPPSFEPAKHILACPKYKTPLENIENMLFSPESLMVYPIVGGIPCLGINNGLVASKFRELISKG” the “soluble on expression in E. coli” value was “not soluble”.
For “MGSDKIHHHHHHMHTVAVERAARYDPSEVAEAMDRALASLGGMDTFVRPGERVLIKPNMLAAKAPERAVTTHPEVLRAVIRLVRKAGGIPLVGDSPGIGGFRAVAEKSGMAAVVREAGAELVPFDEAVAVPGSGLFRRMDVARPYLEADRLINLPKLKTHEMMTMTCAVKNLFGAVVGTAKAGWHLKAGADRELFARLLLEIYLLRPPDLTIVDGIVAMEGDGPGSGDPRPMGLILAGANAVAVDVVAAELAGIPKQLLWVERAAERLGIDGWDRSRIATVGLPPDDARVPDFRLPHLSDVQFGIPGFLKNRLRHHLTARPVPNPEGCHLCGACLDACPPRAISVRDGRLHFDYHACIRCFCCRELCPDGSLGVRDGVLLKLLKKFKE”, the “soluble on expression in E. coli” value was “not soluble”.
For “MGSDKIHHHHHHMIARKLADLGVDVIEAGFPASSEGEFIATRKIFEEIGDQVEVIGLSRSNKNDIDKTISTGISSIHLFIATSELHMKYKLKMTKEEVLNKIYESVKYAKDHGMIVEFSPEDATRTEEDFLFTAIRTAIEAGADRINIPDTVGTMHPFKYYDMIKKIVNFVGERIIVSVHCHNDFGLATANSLAGVYAGARQAHVTVNGIGERAGNASLEEVVMGIKKLLNYETNVKTWKLYEVSRFVAEMTGVPVPYFKAIVGDNAFGHESGIHVHGVIENPFTYEPISPEEVGNFRRLALGKHSGIHGLRKLLEEQGIYLSDDKLKIVLAEIKKLAESGNKVTVEDAKNIALKLMNS”, the “soluble on expression in E. coli” value was “not soluble”.
For “MGSDKIHHHHHHMICMAVGIASLLFNIEEALNICESIKQITHLEIGIDNISECSELCKYKERISKLGLSIGIHLPMELNTCENIEYIRNSWINFIEKIEFELKGFDLRYFNLHLGYVMTNRVRKNRDKYLGNSVDFLDKLNTNSYVCIENTYSKGGDFSNIGNISYDFEYIFKRIKNSKICFCYDTGHCLIDEDAYVKNLKDKIRLIHLSDNDGINDTHVGIGRGILSEEGIKEVLTLDAEYLVLEINYEDIEDTISKLNNIVGEG”, the “soluble on expression in E. coli” value was “not soluble”.
In the case of “MGSDKIHHHHHHMIDGDSSPLLRKQSPYPHWQYLHPESGDRLRIVPERGGLVTDWCCNGHELLYLDQERFADPEKSIRGGIPVLFPICGNLPGDLLPLPSGEFILKQHGFARDQPWELQLLEDHSGVKLSFVDSEETRAAYPFSFLLEMVVRPIRNALEIDVNVHNRSQSAMPFSFGLHPYFKVTDLNKVRLEGLPNSCLNHLQMAEAETAIQLAALTEGVDFLTRPAGPVTLVDEASGRSLQLQHENPMDLTVVWTDPPRQMLCLEPWTGPREALISGDRKLEIEAGGQQRLRCSFSINLEKTVRAASC”, the “soluble on expression in E. coli” value was “not soluble”.
